Measurements as given in PMC6007975.
Several values for one entry are separate records, joined by “and”; a condition that tells them apart may be missing. Equal entries are not always repeated.

Target: N-terminal fragment of mouse GSDMA3 (GSDMA3-NT) (mouse) (UniProt Q5Y4Y6)
Assay: cryo-EM structure

- stoichiometry N: 26 and 28
Substance: N-terminal fragment of mouse GSDMA3 (GSDMA3-NT) (from UniProt Q5Y4Y6 1-262) (domain or fragment)
